Numbering of substitutions follows the chain as printed.
B1: 2/99 VH8/VL7 (antibody, V domains shown)
VH: QQLVETGGGLIQPGGSLRLSCAASGFSLSSYAMSWVRQAPGKGLEWIGYIWSGGSTDYASWAKGRFTISKTSTTLYLQMNSLRAEDTAVYYCARRYGTSYPDYGDANGFDPWGQGTLVTVSS
VL: AIQLTQSPSSLSASVGDRVTITCRASQSISSYLAWYQQKPGKAPKLLIYRASTLASGVPSRFSGSGSGTDFTLTISSLQPEDFATYYCQQSYSSSNVDNTFGGGTKVEIK
B2: 2/99 VH9/VL7 (antibody, V domains shown)
VH: QQLLESGGGLVQPGGSLRLSCAASGFTFSSYAMSWVRQAPGKGLEWVGYIWSGGSTDYADSVKGRFTISRDNSKNTLYLQMNSLRAEDTAVYYCAKRYGTSYPDYGDANGFDPWGQGTLVTVSS
VL: B1 VL
B3: 2/99 VH11/VL7 (antibody, V domains shown)
VH: B2 VH with T27S, F28L, K96R
VL: B1 VL
B4: 2/99 VH12/VL7 (antibody, V domains shown)
VH: QVQLQESGPGLVKPSETLSLTCTVSGFSLSSYAMSWIRQPPGKGLEWIGYIWSGGSTDYNPSLKSRVTISVDTSKNQFSLKLSSVTAADTAVYYCARRYGTSYPDYGDANGFDPWGQGTLVTVSS
VL: B1 VL
B5: 2/99 VH13/VL7 (antibody, V domains shown)
VH: B4 VH with F78V
VL: B1 VL
B6: 2/99 VH15/VL7 (antibody, V domains shown)
VH: QQLQESGPGLVKPSETLSLTCTVSGFSLSSYAMSWVRQPPGKGLEWIGYIWSGGSTDYNPSLKSRVTISVDTSKNQVSLKLSSVTAADTAVYYCARRYGTSYPDYGDANGFDPWGQGTLVTVSS
VL: B1 VL
B7: 2/99 VH16/VL7 (antibody, V domains shown)
VH: B6 VH with Q116P
VL: B1 VL
B8: 2/99 VH17/VL7 (antibody, V domains shown)
VH: B6 VH with V70K, Q116P
VL: B1 VL
B9: 2/99 VH18/VL7 (antibody, V domains shown)
VH: B4 VH with E16Q, P40H, N60A
VL: B1 VL
B10: 2/99 VH19/VL7 (antibody, V domains shown)
VH: B6 VH with Q2S, L3M, E15Q, V36I, P39H, N59A, V77F
VL: B1 VL
B11: 2/99 VH20/VL7 (antibody, V domains shown)
VH: B6 VH with Q2S, L3M, E15Q, V36I, P39H, N59A
VL: B1 VL
B12: 2/99 VH21/VL7 (antibody, V domains shown)
VH: B6 VH with Q2S, L3M, E15Q, V36I, P39H, N59A, P60S, S61W, L62A
VL: B1 VL
B13: 2/99 VH22/VL7 (antibody, V domains shown)
VH: B6 VH with Q2S, L3M, E15Q, P39H, N59A, P60S, S61W, L62A
VL: B1 VL
B14: 2/99 VH23-DANG/VL7 (antibody, V domains shown)
VH: QSMQESGPGLVKPSQTLSLTCTVSGFSLSSYAMSWIRQHPGKGLEWIGYIWSGGSTDYASWAKSRVTISKTSTTVSLKLSSVTAADTAVYYCARRYGTSYPDYGDANGFDPWGQGTLVTVSS
VL: B1 VL
B15: 2/99 VH1/VL8 (antibody, V domains shown)
VH: B2 VH with Q1V, L4V, S6T, V11I, T27S, F28L, K96R
VL: B1 VL with I2Y, A34S
B16: 2/99 VH2/VL8 (antibody, V domains shown)
VH: EVQLVETGGGLIQPGGSLRLSCAASGFSLSSYAMSWVRQAPGKGLEWVGYIWSGGSTDYADSVKGRFTISRDNSKNTLYLQMNSLRAEDTAVYYCARRYGTSYPDYGDANGFDPWGQGTLVTVSS
VL: B1 VL with I2Y, A34S
B17: 2/99 VH5/VL8 (antibody, V domains shown)
VH: B2 VH with Q2S, L3M, L4E, S6T, V11I, T27S, F28L, K96R, Q116P
VL: B1 VL with I2Y, A34S
B18: 2/99 VH6/VL8 (antibody, V domains shown)
VH: B2 VH with L4V, S6T, V11I, T27S, F28L, V47I, K96R
VL: B1 VL with I2Y, A34S
B19: 2/99 VH7/VL8 (antibody, V domains shown)
VH: B2 VH with L4V, S6T, V11I, T27S, F28L, V47I, D60S, S61W, V62A, K96R
VL: B1 VL with I2Y, A34S
B20: 2/99 VH8/VL8 (antibody, V domains shown)
VH: B1 VH
VL: B1 VL with I2Y, A34S
B21: 2/99 VH9/VL8 (antibody, V domains shown)
VH: B2 VH
VL: B1 VL with I2Y, A34S
B22: 2/99 VH11/VL8 (antibody, V domains shown)
VH: B2 VH with T27S, F28L, K96R
VL: B1 VL with I2Y, A34S
B23: 2/99 VH12/VL8 (antibody, V domains shown)
VH: B4 VH
VL: B1 VL with I2Y, A34S
B24: 2/99 VH13/VL8 (antibody, V domains shown)
VH: B4 VH with F78V
VL: B1 VL with I2Y, A34S
B25: 2/99 VH15/VL8 (antibody, V domains shown)
VH: B6 VH
VL: B1 VL with I2Y, A34S
B26: 2/99 VH16/VL8 (antibody, V domains shown)
VH: B6 VH with Q116P
VL: B1 VL with I2Y, A34S
B27: 2/99 VH17/VL8 (antibody, V domains shown)
VH: B6 VH with V70K, Q116P
VL: B1 VL with I2Y, A34S
B28: 2/99 VH18/VL8 (antibody, V domains shown)
VH: B4 VH with E16Q, P40H, N60A
VL: B1 VL with I2Y, A34S
B29: 2/99 VH19/VL8 (antibody, V domains shown)
VH: B6 VH with Q2S, L3M, E15Q, V36I, P39H, N59A, V77F
VL: B1 VL with I2Y, A34S
B30: 2/99 VH20/VL8 (antibody, V domains shown)
VH: B6 VH with Q2S, L3M, E15Q, V36I, P39H, N59A
VL: B1 VL with I2Y, A34S
B31: 2/99 VH21/VL8 (antibody, V domains shown)
VH: B6 VH with Q2S, L3M, E15Q, V36I, P39H, N59A, P60S, S61W, L62A
VL: B1 VL with I2Y, A34S
B32: 2/99 VH22/VL8 (antibody, V domains shown)
VH: B6 VH with Q2S, L3M, E15Q, P39H, N59A, P60S, S61W, L62A
VL: B1 VL with I2Y, A34S
B33: 2/99 VH23-DANG/VL8 (antibody, V domains shown)
VH: B14 VH
VL: B1 VL with I2Y, A34S
B34: 2/99 VH0(rb)/VL9-NYA (antibody, V domains shown)
VH: QSMEESGGRLVTPGTPLTLTCTVSGFSLSSYAMSWVRQAPGKGLEWIGYIWSGGSTDYASWAKGRFTISKTSTTVDLKITSPTTEDTATYFCARRYGTSYPDYGDANGFDPWGPGTLVTVSS
VL: AIQLTQSPSSLSASVGDRVTITCRASQSISSYLAWYQQKPGKAPKLLIYRASTLASGVPSRFSGSGSGTDFTLTISSLQPEDFATYYCQQNYASSNVDNTFGGGTKVEI
B35: 2/99 VH1/VL10 (antibody, V domains shown)
VH: B2 VH with Q1V, L4V, S6T, V11I, T27S, F28L, K96R
VL: B1 VL with A1D, L4M, A34S, G66R

Target: T1, human transferrin receptor (recombinant, for surface plasmon resonance) (human, UniProt P02786 89-760)
T1 construct: also called huTfR; human transferrin receptor-biotinylated
Test: SPR 25C

T1 sequence (P02786 89-760 limits assumed): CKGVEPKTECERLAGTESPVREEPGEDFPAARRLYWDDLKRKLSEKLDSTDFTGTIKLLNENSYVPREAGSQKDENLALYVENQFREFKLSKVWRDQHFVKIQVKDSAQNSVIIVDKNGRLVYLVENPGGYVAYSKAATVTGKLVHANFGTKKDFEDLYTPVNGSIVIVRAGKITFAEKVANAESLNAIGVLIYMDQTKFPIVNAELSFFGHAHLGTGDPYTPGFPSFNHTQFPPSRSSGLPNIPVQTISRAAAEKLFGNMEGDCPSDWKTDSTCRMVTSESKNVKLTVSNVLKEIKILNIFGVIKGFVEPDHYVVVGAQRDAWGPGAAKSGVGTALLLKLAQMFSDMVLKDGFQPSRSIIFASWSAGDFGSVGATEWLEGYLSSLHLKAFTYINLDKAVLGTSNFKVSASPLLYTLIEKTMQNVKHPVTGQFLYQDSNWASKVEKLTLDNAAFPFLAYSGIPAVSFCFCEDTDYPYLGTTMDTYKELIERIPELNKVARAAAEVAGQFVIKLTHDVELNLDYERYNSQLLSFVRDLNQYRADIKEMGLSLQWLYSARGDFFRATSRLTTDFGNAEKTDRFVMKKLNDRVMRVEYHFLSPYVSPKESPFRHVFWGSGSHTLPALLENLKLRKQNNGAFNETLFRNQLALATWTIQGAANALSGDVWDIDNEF

Row | Binder | koff
1 | B1 | 0.00231 s⁻¹
2 | B2 | 0.00761 s⁻¹
3 | B3 | 0.00781 s⁻¹
4 | B4 | 0.00771 s⁻¹
5 | B5 | 0.00668 s⁻¹
6 | B6 | 0.00543 s⁻¹
7 | B7 | 0.00525 s⁻¹
8 | B8 | 0.00233 s⁻¹
9 | B9 | 0.00766 s⁻¹
10 | B10 | 0.001 s⁻¹
11 | B11 | 0.00714 s⁻¹
12 | B12 | 0.00238 s⁻¹
13 | B13 | 0.00337 s⁻¹
14 | B14 | 0.00155 s⁻¹
15 | B15 | 0.00485 s⁻¹
16 | B16 | 0.00394 s⁻¹
17 | B17 | 0.00378 s⁻¹
18 | B18 | 0.00301 s⁻¹

Row | Binder | koff
19 | B19 | 0.00172 s⁻¹
20 | B20 | 0.00116 s⁻¹
21 | B21 | 0.00523 s⁻¹
22 | B22 | 0.00552 s⁻¹
23 | B23 | 0.00531 s⁻¹
24 | B24 | 0.00247 s⁻¹
25 | B25 | 0.00209 s⁻¹
26 | B26 | 0.00197 s⁻¹
27 | B27 | 0.00111 s⁻¹
28 | B28 | 0.00677 s⁻¹
29 | B29 | 0.00671 s⁻¹
30 | B30 | 0.00658 s⁻¹
31 | B31 | 0.00174 s⁻¹
32 | B32 | 0.00165 s⁻¹
33 | B33 | 0.000941 s⁻¹
34 | B34 | 0.00141 s⁻¹
35 | B35 | 0.00677 s⁻¹

— patent publication US20180291110A1 (Hoffmann-La Roche, published 2018)
